In US20180057536:

Legend:
[1] = tested on: T1, Selective delivery molecule 10 (SDM-10)
T1 sequence: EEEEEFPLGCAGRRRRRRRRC

[2] = tested on: T2, Selective delivery molecule 9 (SDM-9)
T2 sequence: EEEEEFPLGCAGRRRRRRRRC

## MMP-9
[1]
  Cy5 fluorescence enhancement after protease cleavage (dequenching), 1 uM SDM-10 in TCNB buffer: the fluorescence was enhanced >100-fold upon protease cleavage
  fluorescent cleavage fragment on polyacrylamide gel (1 nM MMP-9, 1 uM SDM-10, 24 h, 37 C): After cleavage by MMP-9 the fragment containing the fluorophore is dequenched (becoming highly fluorescent) and runs near the bottom of the gel

## matrix metalloproteinase-2 (MMP-2)
[2]
  Cy5 donor emission after protease cleavage (FRET disruption), 1 uM SDM-9 in TCNB buffer: a large 8-fold increase the Cy5 donor emission
  Cy7 acceptor emission after protease cleavage (FRET disruption), 1 uM SDM-9 in TCNB buffer: 2-fold decrease in the Cy7 emission
